Molecular target: Trop-2 (on Trop-2-expressing HCC1806 cells) (human) (UniProt P09758)
Assay: cell-based or functional assay

Sequence of UniProt P09758 (P09758 27-323): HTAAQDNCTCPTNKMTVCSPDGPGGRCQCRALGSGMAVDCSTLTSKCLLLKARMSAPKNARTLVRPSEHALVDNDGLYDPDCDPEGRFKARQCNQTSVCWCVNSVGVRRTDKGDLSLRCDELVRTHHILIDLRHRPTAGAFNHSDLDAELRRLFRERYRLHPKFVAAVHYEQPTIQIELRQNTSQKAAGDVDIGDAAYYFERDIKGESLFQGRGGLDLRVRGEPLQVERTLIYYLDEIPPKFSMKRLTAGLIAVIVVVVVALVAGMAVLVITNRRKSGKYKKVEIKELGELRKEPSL

Specific lysis of HCC1806 cells relative to mock-transfected NK-92MI (flow cytometry, E:T 3:1, 3 h): 2 fold
Substance: hRS7-CAR, a human Trop-2-targeting CAR (SPCD8α-VKhRS7-(GGGGS)3-VHhRS7-HingeCD8α-TMCD8α-ICD4-1BB-ICDCD3ζ) (receptor)
Cytotoxicity by flow cytometry (percent of HCC1806 cells killed, E:T 3:1, 3 h): 42%
